Experimental findings from PMC5028032, “Linkage between Fitness of Yeast Cells and Adenylate Kinase Catalysis” (PLoS ONE, 2016) are described below.

Changes are numbered by the printed parent chain. Names and notes keep the numbering of the source.

Substrate in series [1]: Nc1ncnc2c1ncn2[C@@H]1O[C@H](COP(=O)(O)OP(=O)(O)OP(=O)(O)O)[C@@H](O)[C@H]1O
Nature of the series: purified protein. In kind it is biochemical, Saccharomyces cerevisiae. To be noted: 300 μM AMP constant, 2 mM MgCl2, 80 mM KCl, 100 mM Tris pH 7.5, 20°C.

Substrate in series [2]: Nc1ncnc2c1ncn2[C@@H]1O[C@H](COP(=O)(O)OP(=O)(O)OP(=O)(O)O)[C@@H](O)[C@H]1O
As to the kind of experiment: purified protein. To be noted: 300 μM AMP constant, 2 mM MgCl2, 80 mM KCl, 100 mM Tris pH 7.5, 20°C.

The mark [3] stands for this setting: 11 residues STGDMLSAAVK inserted between Lys40 and Ser41.

B1: Adk1yeast (Saccharomyces cerevisiae S288C) (protein)
chain: SSESIRMVLIGPPGAGKGTQAPNLQERFHAAHLATGDMLRSQIAKGTQLGLEAKKIMDQGGLVSDDIMVNMIKDELTNNPACKNGFILDGFPRTIPQAEKLDQMLKEQGTPLEKAIELKVDDELLVARITGRLIHPASGRSYHKIFNPPKEDMKDDVTGEALVQRSDDNADALKKRLAAYHAQTEPIVDFYKKTGIWAGVDASQPPATVWADILNKLGKD
notes: full-length wild type, recombinant, 15N-enriched, purified as previously described
On to B1, for which, in “purified protein [1]”, the Km amounted to 71 ± 18 µM, the turnover number (kcat) was determined as 520 ± 32 s⁻¹ and the kcat/Km was 7.29e+06 ± 470000 M⁻¹ s⁻¹.

B2: Adkeco (Escherichia coli K-12; G56C) (protein)
chain: MRIILLGAPGAGKGTQAQFIMEKYGIPQISTGDMLRAAVKSGSELGKQAKDIMDACKLVTDELVIALVKERIAQEDCRNGFLLDGFPRTIPQADAMKEAGINVDYVLEFDVPDELIVDRIVGRRVHAPSGRVYHVKFNPPKVEGKDDVTGEELTTRKDDQEETVRKRLVEYHQMTAPLIGYYSKEAEAGNTKYAKVDGTKPVAEVRADLEKILG
As to B2, in “purified protein [2]”, the Km is 34 ± 2 µM, the catalytic constant (kcat) came out at 36 s⁻¹ and the kcat/Km turned out to be 1.04e+06 M⁻¹ s⁻¹.

B3: Adkeco (Escherichia coli K-12; R36A) (protein)
chain: B2 chain with R36A, C56G
For the protein B3, in “purified protein [2]”, the Km is 193 ± 7 µM, the kcat was 19 s⁻¹ and the specificity constant (kcat/Km) came out at 100000 M⁻¹ s⁻¹.

B4: Adkeco (Escherichia coli K-12; INS40STGDMLSAAVK/R36S) (protein)
chain: MRIILLGAPGAGKGTQAQFIMEKYGIPQISTGDMLSAAVKSTGDMLSAAVKSGSELGKQAKDIMDAGKLVTDELVIALVKERIAQEDCRNGFLLDGFPRTIPQADAMKEAGINVDYVLEFDVPDELIVDRIVGRRVHAPSGRVYHVKFNPPKVEGKDDVTGEELTTRKDDQEETVRKRLVEYHQMTAPLIGYYSKEAEAGNTKYAKVDGTKPVAEVRADLEKILG
With B4, in “purified protein [2]” (setting [3]), the Km worked out at 127 ± 30 µM, the kcat was determined as 2 s⁻¹ and the kcat/Km is 20000 M⁻¹ s⁻¹.
